# Measurements taken from the Human Domainome abundance scans (Beltran et al. 2025).
# ± gives the uncertainty stated by the source.
# B1: Dynamin-binding protein, residues 146 to 206; numbered along this chain, Q6XZF7 (parent)
# chain: SMGQARALMGLSAQLDEELDFREGDVITIIGVPEPGWFEGELEGRRGIFPEGFVELLGPLR
# Variants of: B1
# Assay: abundance fitness (aPCA) (normalised: wild type 0, dead -1); higher = more abundant; growth selection in yeast, the domain comes from the species named
# Settings: Homo sapiens
row,Variant,abundance fitness
1,SMGQARALMGLSAQLDEELDFREGDVITYIGVPEPGWFEGELEGRRGIFPEGFVELLGPLR [I29Y],-0.997 ± 0.27
2,SMGQARALMGLSAQLDEELDFREGDVITIIGVPEPGWFEGELEGRRGIFPEGFVELVGPLR [L57V],-0.24 ± 0.044
3,SMGQARALMGLSAQLDEELDFREGDVITIIGVPEPGWFEGELEGRRGIFPEGFVELMGPLR [L57M],-0.251 ± 0.081
4,SMGQARALMGLSAQLDEELDFREGDVITIIGVPEPGWFEGELEGRRGIFPEGFVELHGPLR [L57H],-0.629 ± 0.077
5,SMGQARALMGLSAQLDEELDFREGDVITIIGVPEEGWFEGELEGRRGIFPEGFVELLGPLR [P35E],-0.018 ± 0.13
6,SMGQARALMGLSAQLDEELDFREGDVITIIGVPEWGWFEGELEGRRGIFPEGFVELLGPLR [P35W],-0.926 ± 0.34
7,SMGQARFLMGLSAQLDEELDFREGDVITIIGVPEPGWFEGELEGRRGIFPEGFVELLGPLR [A7F],-1.01 ± 0.21
8,SMGQARALMGLSAQLDEELDFREGDVITIIGVPEPGWFEGEKEGRRGIFPEGFVELLGPLR [L42K],-0.316 ± 0.14
9,SMGQARALMGLSAQLDEELDFREGDVITIIGVPEPGWFEGELEGRRGIFDEGFVELLGPLR [P50D],-0.797 ± 0.13
10,SMGQARALMGLSAQLDEELDFREGDVITIIGVPEPGWFEGELEGRRGIFHEGFVELLGPLR [P50H],-0.333 ± 0.067
11,SMGQARALMGLSAQLDEELDFREGKVITIIGVPEPGWFEGELEGRRGIFPEGFVELLGPLR [D25K],-1.03 ± 0.21
12,SMGQARALMGLSAQLDEEHDFREGDVITIIGVPEPGWFEGELEGRRGIFPEGFVELLGPLR [L19H],-0.768 ± 0.15
13,MMGQARALMGLSAQLDEELDFREGDVITIIGVPEPGWFEGELEGRRGIFPEGFVELLGPLR [S1M],0.073 ± 0.3
14,SMGQARALTGLSAQLDEELDFREGDVITIIGVPEPGWFEGELEGRRGIFPEGFVELLGPLR [M9T],0.017 ± 0.051
15,SMGQARALMGLSAQLDEELDFREGDVITIIGVPEPGWFELELEGRRGIFPEGFVELLGPLR [G40L],-0.762 ± 0.078
16,SMGQARALMGLSAQLDEELDFREGDVITIIGVPEPGWFEYELEGRRGIFPEGFVELLGPLR [G40Y],-0.604 ± 0.07
17,SMGQARALMGLSAQLDEELDFREGDVITIIGVPEPGWFEQELEGRRGIFPEGFVELLGPLR [G40Q],-0.974 ± 0.26
18,SMGQARALMGLSAQLDEELDFREGDVITIIGVPEPGWFEGELEGRRGIFPEGFVELLGPLD [R61D],-0.053 ± 0.084
19,SMGQARALMGLSAQLDEELDFREGDVITIIGVPEPGWFEGELEGRRGIFPEGFVELLGPLF [R61F],-0.363 ± 0.12
20,SMGQAYALMGLSAQLDEELDFREGDVITIIGVPEPGWFEGELEGRRGIFPEGFVELLGPLR [R6Y],-0.471 ± 0.064
21,SMGQARALMGLSAQLDEELDFREGDVITIIGVPEPGWFEGELEGRRGIFPEGFVEVLGPLR [L56V],-0.152 ± 0.087
22,SMGQARALMGLSAQLDEELDFREFDVITIIGVPEPGWFEGELEGRRGIFPEGFVELLGPLR [G24F],-0.82 ± 0.1

row,Variant,abundance fitness
1,SMGQARALMGLSAQLDEELDFREGDVITIIGVPEPGWFEGFLEGRRGIFPEGFVELLGPLR [E41F],-0.6 ± 0.29
2,SMGQARALMGLSAQLDEELDFREGDVITIIGVPEPGWFEGMLEGRRGIFPEGFVELLGPLR [E41M],-0.211 ± 0.093
3,SMGQARALMGLSAQLDEELDFREGDVITIIGPPEPGWFEGELEGRRGIFPEGFVELLGPLR [V32P],-1.04 ± 0.23
4,SMGQARALMGLSAQLDEELDFREGDVITIIGVPEPGWFEGELEGRRGIFPEHFVELLGPLR [G52H],0.404 ± 0.22
5,SMGQARALMGLSAQLFEELDFREGDVITIIGVPEPGWFEGELEGRRGIFPEGFVELLGPLR [D16F],-0.763 ± 0.14
6,SMGQARALMGLSAQLDEELDFREGDVITIIGVCEPGWFEGELEGRRGIFPEGFVELLGPLR [P33C],-0.792 ± 0.18
7,SMGQARALMGLSAQLDEELDFREGDVITIIGVPEPGWFEGELEGRRGIFPEGFVNLLGPLR [E55N],-0.939 ± 0.28
8,SMGQARALMGLSAQLDEELDFREGDVITIIGVPEPGWFEGELEGRRGIFPEGFVKLLGPLR [E55K],-0.253 ± 0.17
9,SMGQARALMGLSAQLDEELDVREGDVITIIGVPEPGWFEGELEGRRGIFPEGFVELLGPLR [F21V],-0.711 ± 0.09
10,SMGQARALMGLSAQLDEELDIREGDVITIIGVPEPGWFEGELEGRRGIFPEGFVELLGPLR [F21I],-0.435 ± 0.065
11,SMGQARALMGLSAQLDEELDNREGDVITIIGVPEPGWFEGELEGRRGIFPEGFVELLGPLR [F21N],-0.832 ± 0.11
12,SMGQARALMGLSAQLDEELDFREGDVITIIGVPEPGWFEGELEGRRGIFPNGFVELLGPLR [E51N],-0.66 ± 0.15
13,SMGQARALMGLSAQLDEELDFREGDVITIIGVPEPGWFEGELEGRRGIFPPGFVELLGPLR [E51P],-0.792 ± 0.33
14,SMGQARALMGLSAILDEELDFREGDVITIIGVPEPGWFEGELEGRRGIFPEGFVELLGPLR [Q14I],-0.354 ± 0.062
15,SMGQARALMGLSAQLDEELDFREGDFITIIGVPEPGWFEGELEGRRGIFPEGFVELLGPLR [V26F],-0.464 ± 0.055
16,SMGQARALMGLSAQLDEELDFREGDLITIIGVPEPGWFEGELEGRRGIFPEGFVELLGPLR [V26L],0.043 ± 0.049
17,SMGQARALMGLSAQLDEELDFREGDYITIIGVPEPGWFEGELEGRRGIFPEGFVELLGPLR [V26Y],-0.416 ± 0.051
18,SMGQARALMGLSAQLDEELDFREGDVGTIIGVPEPGWFEGELEGRRGIFPEGFVELLGPLR [I27G],-0.627 ± 0.12
19,SMWQARALMGLSAQLDEELDFREGDVITIIGVPEPGWFEGELEGRRGIFPEGFVELLGPLR [G3W],-0.227 ± 0.072
20,SMGQARALMGLSPQLDEELDFREGDVITIIGVPEPGWFEGELEGRRGIFPEGFVELLGPLR [A13P],0.013 ± 0.078
21,SMGQARALMGLSHQLDEELDFREGDVITIIGVPEPGWFEGELEGRRGIFPEGFVELLGPLR [A13H],-0.548 ± 0.072
22,SMGQARALMGLSAQQDEELDFREGDVITIIGVPEPGWFEGELEGRRGIFPEGFVELLGPLR [L15Q],0.137 ± 0.076
